Here are results for one molecule from PMC6943233, “Disorder‐to‐order transition in PE–PPE proteins of Mycobacterium tuberculosis augments the pro‐pathogen immune response” (FEBS Open Bio, 2019).

For the experiment, the target named is T1, PPE68 (Mycobacterium tuberculosis, UniProt P9WHW9 1-368).
T1 construct: also called recombinant PPE68
T1 sequence: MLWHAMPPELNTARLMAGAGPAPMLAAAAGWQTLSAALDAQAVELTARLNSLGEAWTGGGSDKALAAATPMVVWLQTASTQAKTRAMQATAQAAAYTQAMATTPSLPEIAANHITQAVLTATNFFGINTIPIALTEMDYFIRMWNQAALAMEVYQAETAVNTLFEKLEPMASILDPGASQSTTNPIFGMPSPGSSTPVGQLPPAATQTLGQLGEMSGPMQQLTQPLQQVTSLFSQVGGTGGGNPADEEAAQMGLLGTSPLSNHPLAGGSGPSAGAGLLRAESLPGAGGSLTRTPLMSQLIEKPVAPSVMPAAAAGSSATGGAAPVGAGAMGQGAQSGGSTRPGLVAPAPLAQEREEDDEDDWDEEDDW
The experiment can be described thus: other fluorescence titration; intrinsic fluorescence of the PPE protein (10 μg) with the tryptophan-free PE protein added (10 and 30 μg); excitation 280 nm, emission 300-340 nm, 25 ± 0.1 °C. The conditions noted are these: both partners purified.

B1: PE35 (natural protein)
chain: MEKMSHDPIAADIGTQVSDNALHGVTAGSTALTSVTGLVPAGADEVSAQAATAFTSEGIQLLASNASAQDQLHRAGEAVQDVARTYSQIDDGAAGVFAE
notes: also called recombinant PE35
For B1, the binding result is recorded as “binds”.
